T1: synthetic purified T1A peptide
T1 chain: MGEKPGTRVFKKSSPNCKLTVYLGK

B1: MKK4 (purified) (protein)
chain: MAAPSPSGGGGSGGGSGSGTPGPVGSPAPGHPAVSSMQGKRKALKLNFANPPFKSTARFTLNPNPTGVQNPHIERLRTHSIESSGKLKISPEQHWDFTAEDLKDLGEIGRGAYGSVNKMVHKPSGQIMAVKRIRSTVDEKEQKQLLMDLDVVMRSSDCPYIVQFYGALFREGDCWICMELMSTSFDKFYKYVYSVLDDVIPEEILGKITLATVKALNHLKENLKIIHRDIKPSNILLDRSGNIKLCDFGISGQLVDSIAKTRDAGCRPYMAPERIDPSASRQGYDVRSDVWSLGITLYELATGRFPYPKWNSVFDQLTQVVKGDPPQLSNSEEREFSPSFINFVNLCLTKDESKRPKYKELLKHPFILMYEERAVEVACYVCKILDQMPATPSSPMYVD

Assays:
[1] = test system: synthetic purified T1A peptide
[2] = target: T1, synthetic purified T1A peptide

Molecule | optimal T1A concentration for JNK3 phosphorylation by MKK7, against full-length arrestin-3 [1] | JNK3 phosphorylation by MKK4 as a function of T1A concentration (in vitro kinase assay, purified proteins) [2] | optimal T1A concentration for JNK3 phosphorylation by MKK4, against full-length arrestin-3 [2]
MKK7 (purified) | in both cases optimal T1A concentrations were ˜10-times lower than those of full-length arrestin-3 | – | –
B1 | – | the optimal concentration of T1A for promoting JNK3 phosphorylation by MKK4 is lower than for MKK7-JNK3 module | in both cases optimal T1A concentrations were ˜10-times lower than those of full-length arrestin-3
